Source: the Immune Epitope Database (IEDB)
Blank lines part the entries; values can stand above or below the sequence they belong to.

Columns and labels:
HLA-A*26:01 = assay: IEDB peptide-MHC binding, purified MHC/competitive/radioactivity; filed as Kd, often an IC50 or EC50 that approximates it; ≥ and ≤ were set here for values at or beyond the usual limits of such assays
HLA-B*07:02 = assay: as above
HLA-B*40:01 = assay: as above
HLA-B*08:01 = assay: as above
HLA-B*53:01 = assay: as above
HLA-A*01:01 [1] = assay: as above; details: source organism: Dengue virus 4 Philippines/H241/1956
HLA-A*23:01 = assay: as above
HLA-A*24:02 = assay: as above
HLA-A*30:01 = assay: as above
HLA-A*29:02 = assay: as above; details: source organism: Mammarenavirus guanaritoense
HLA-A*11:01 = assay: IEDB peptide-MHC binding, purified MHC/direct/fluorescence; filed as Kd, often an IC50 or EC50 that approximates it; ≥ and ≤ were set here for values at or beyond the usual limits of such assays
HLA-B*58:01 = assay: as above; details: source organism: SARS-CoV1
HLA-B*15:01 = assay: as above
HLA-A*31:01 = assay: as above
HLA-A*69:01 = assay: as above; details: source organism: Haemophilus influenzae
HLA-A*03:01 = assay: as above; details: source organism: Haemophilus influenzae
HLA-A*01:01 [2] = assay: as above; details: source organism: Haemophilus influenzae
[3] = source organism: Dengue virus 4 Philippines/H241/1956
[4] = source organism: Dengue virus 3 Martinique/1243/1999
[5] = source organism: Vaccinia virus WR
[6] = source organism: Dengue virus 1 Brazil/97-11/1997
[7] = source organism: Dengue virus 2 Jamaica/1409/1983
[8] = source organism: Mammarenavirus guanaritoense
[9] = source organism: Haemophilus influenzae

Sequence: ETAWDFGSVG
Kd (HLA-A*26:01; [3]): 138 nM

Sequence: SPTSYLDVDL
Kd (HLA-B*07:02; [4]): 1640 nM

Sequence: LEHGGCVTTM
Kd (HLA-B*40:01; [4]): 9.41 nM

Sequence: FFINFFNLL
Kd (HLA-B*08:01; [5]): 149 nM

Sequence: FGIFTTNIW
Kd (HLA-B*53:01; [6]): 168 nM

Sequence: GPMPVTVASA
Kd (HLA-B*07:02; [6]): 53.3 nM

Sequence: FLGEDGCWY
Kd (HLA-A*01:01 [1]): 277 nM

Sequence: PYMPSVVETL
Kd (HLA-A*23:01; [6]): 32.2 nM
Kd (HLA-A*24:02; [6]): 31.9 nM

Sequence: PTEQVDTLL
Kd (HLA-A*01:01 [1]): 14800 nM

Sequence: RVLLLTPEV
Kd (HLA-A*30:01; [5]): 48.6 nM

Sequence: RQWFLDLPLP
Kd (HLA-A*30:01; [7]): 11600 nM

Sequence: DARTYSDPLA
Kd (HLA-A*30:01; [6]): 924 nM

Sequence: KKKQRSGVL
Kd (HLA-B*08:01; [6]): 2290 nM

Sequence: MTTEDMLAVW
Kd (HLA-B*53:01; [7]): 354 nM

Sequence: VESWEEVPYL
Kd (HLA-B*40:01; [7]): 41 nM

Sequence: STVQQLTKRF
Kd (HLA-A*26:01; [7]): 6790 nM

Sequence: IMRMRFKKG
Kd (HLA-B*08:01; [5]): 62.4 nM

Sequence: FVEGVSGGSW
Kd (HLA-B*53:01; [7]): 48.8 nM
Kd (HLA-A*26:01; [7]): 14200 nM

Sequence: RPTPKGAVMD
Kd (HLA-B*07:02; [3]): 100 nM

Sequence: NYILWENNI
Kd (HLA-A*23:01; [4]): 6.03 nM
Kd (HLA-A*24:02; [4]): 2.85 nM

Sequence: SAIFFTTSLF
Kd (HLA-A*23:01; [8]): 80.8 nM
Kd (HLA-A*24:02; [8]): 452 nM
Kd (HLA-A*29:02): 87.9 nM

Sequence: HTLESPVEF
Kd (HLA-A*11:01; source organism: SARS-CoV1): ≥ 53900 nM
Kd (HLA-B*58:01): 98.1 nM
Kd (HLA-B*15:01; source organism: SARS-CoV1): 1440 nM
Kd (HLA-A*31:01; source organism: SARS-CoV1): 1400 nM

Sequence: GVIITWIGM
Kd (HLA-A*26:01; [7]): 15700 nM

Kd (HLA-A*11:01; [9]): 166 nM
Kd (HLA-A*69:01): 4450 nM
Kd (HLA-A*03:01): 2730 nM
Kd (HLA-B*15:01; [9]): 1160 nM
Kd (HLA-A*31:01; [9]): 8180 nM
Kd (HLA-A*01:01 [2]): 241 nM
Sequence: GTEMFRHGY
